{"source": "patent US20090202508A1", "about": "“NEGATIVE REGULATION OF HYPOXIA INDUCIBLE FACTOR 1 BY OS-9” (THE JOHNS HOPKINS UNIVERSITY, priority 2004, published 2009)", "molecules": {"B1": {"name": "OS-9: human OS-9 protein (667-residue isoform), HA-tagged, from expression vector or in vitro-translated (protein)", "chain": "MAAETLLSSLLGLLLLGLLLPASLTGGVGSLNLEELSEMRYGIEILPLPVMGGQSQSSDVVIVSSKYKQRYECRLPAGAIHFQREREEETPAYQGPGIPELLSPMRDAPCLLKTKDWWTYEFCYGRHIQQYHMEDSEIKGEVLYLGYYQSAFDWDDETAKASKQHRLKRYHSQTYGNGSKCDLNGRPREAEVRFLCDEGAGISGDYIDRVDEPLSCSYVLTIRTPRLCPHPLLRPPPSAAPQAILCHPSLQPEEYMAYVQRQADSKQYGDKIIEELQDLGPQVWSETKSGVAPQKMAGASPTKDDSKDSDFWKMLNEPEDQAPGGEEVPAEEQDPSPEAADSASGAPNDFQNNVQVKVIRSPADLIRFIEELKGGTKKGKPNIGQEQPVDDAAEVPQREPEKERGDPERQREMEEEEDEDEDEDEDEDERQLLGEFEKELEGILLPSDRDRLRSEVKAGMERELENIIQETEKELDPDGLKKESERDRAMLALTSTLNKLIKRLEEKQSPELVKKHKKKRVVPKKPPPSPQPTEEDPEHRVRVRVTKLRLGGPNQDLTVLEMKRENPQLKQIEGLVKELLEREGLTAAGKIEIKIVRPWAEGTEEGARWLTDEDTRNLKEIFFNILVPGAEEAQKERQRQKELESNYRRVWGSPGGEGTGDLDEFDF", "modifications": "left off: small tags and cut ends", "notes": "human OS-9 protein (667-residue isoform), HA-tagged, from expression vector or in vitro-translated"}}, "key": {"[1]": {"target": "T1, PHD3 (Homo sapiens, UniProt Q9H6Z9)", "T1 construct": "expressed in transfected cells; host or cells: 293 cells", "test": "Co-immunoprecipitation of HA-OS-9 with PHD3 in 293 cells", "type": "cell-based", "conditions": "anti-HA immunoprecipitates, immunoblot; FIG. 5", "experimental": "(§1) 293 cells (3×10^6 cells per […] plate) were transfected with Lipofectamine Plus and a total of 10 μg of expression vectors. After 24 h, cells were lysed with PBS/0.1% Tween-20. 400 μg of whole cell lysate (brought to a final volume of 200 μl with lysis buffer) were immunoprecipitated using anti-HA affinity matrix (Roche) followed by immunoblot assay using antibody against HIF-1α (Zhong et al. 1999), PHD 1-3 (Novus Biologicals Inc.), or HA (Roche)."}, "[2]": {"system": "HIF-1", "test": "HIF-1-dependent p2.1 luciferase reporter assay", "type": "cell-based, human", "experimental": "(§2) 293 or Hep3B cells were seeded onto 24-well plates at 8×10^4 cells per well of a 24-well plate. The following day, the cells were transfected with plasmid DNAs using Fugene-6 (Roche) for 293 and Lipofectamine Plus (Invitrogen) for Hep3B cells. After 24 h, the cells were exposed to 20% or 1% O2 for 24 h. Cells were lysed, and the luciferase activities were determined by multi-well luminescence reader (PerkinElmer), using the Dual-Luciferase Reporter Assay System (Promega). For p2.1 reporter assay, cells were co-transfected with 15 ng of control reporter pSV-Renilla, 135 ng of HIF-1 reporter p2.1, and expression vector encoding HA-OS-9, HIF-1α, or empty vector. Unless indicated otherwise, 200 ng of HIF-1α, 400 ng of HA-OS-9, 1 ng of PHD2, or 1 ng of HIF-1α triple mutant P402A/P564A/N803A (HIF-1α TM) expression vector was used for co-transfection. For pGalA reporter assays, Hep3B cells were co-transfected with 12.5 ng of pSV-Renilla, reporter 200 ng of pG5ElbLuc, 100 ng of expression vector encoding the GAL4 DNA-binding domain alone or fused to HIF-1α residues 531-826 (Jiang et al. 1997) and empty vector or vector encoding HA-OS-9. For immunoblot assays, 293 cells were seeded at 3×10^6 cells per 10-cm plate. The following day, the cells were co-transfected with expression vectors using Fugene-6. After 24 h, the cells were exposed to 20% or 1% O2 with or without MG132 (10 μM) for 8 h and lysed in 200 μl of lysis buffer containing 50 mM Tris-Cl (pH 8.0), 150 mM NaCl, 5 mM EDTA, 0.1% SDS, 1% NP-40, 0.5% sodium deoxycholate, Complete protease inhibitor cocktail (Roche), sodium orthovanadate, and sodium vanadate (Sigma)."}, "[3]": {"target": "HIF-1α (Homo sapiens, UniProt Q16665)", "sequence (Q16665 whole entry)": "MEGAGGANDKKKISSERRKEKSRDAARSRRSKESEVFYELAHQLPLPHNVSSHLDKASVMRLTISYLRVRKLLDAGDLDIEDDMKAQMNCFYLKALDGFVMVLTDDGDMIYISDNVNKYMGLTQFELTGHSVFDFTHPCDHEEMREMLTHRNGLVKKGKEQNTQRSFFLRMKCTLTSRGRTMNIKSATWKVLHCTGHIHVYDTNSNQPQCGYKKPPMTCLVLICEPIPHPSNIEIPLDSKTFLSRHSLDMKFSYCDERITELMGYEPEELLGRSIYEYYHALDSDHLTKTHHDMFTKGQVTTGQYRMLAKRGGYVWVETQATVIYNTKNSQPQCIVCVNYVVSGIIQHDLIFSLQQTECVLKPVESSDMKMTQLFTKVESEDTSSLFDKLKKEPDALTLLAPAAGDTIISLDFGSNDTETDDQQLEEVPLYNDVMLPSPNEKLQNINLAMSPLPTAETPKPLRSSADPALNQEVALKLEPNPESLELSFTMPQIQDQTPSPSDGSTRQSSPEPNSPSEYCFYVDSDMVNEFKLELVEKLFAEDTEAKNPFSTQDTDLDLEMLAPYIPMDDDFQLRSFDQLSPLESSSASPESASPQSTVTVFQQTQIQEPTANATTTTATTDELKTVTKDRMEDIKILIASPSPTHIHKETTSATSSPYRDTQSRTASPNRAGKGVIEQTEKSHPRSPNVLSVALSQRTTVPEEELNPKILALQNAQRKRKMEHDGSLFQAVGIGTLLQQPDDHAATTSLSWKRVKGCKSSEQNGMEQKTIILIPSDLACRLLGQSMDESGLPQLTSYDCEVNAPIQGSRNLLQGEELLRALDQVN", "test": "Co-immunoprecipitation of HA-OS-9 and HIF-1α in 293 cells", "type": "cell-based", "conditions": "anti-HA immunoprecipitation, FIG. 2B", "experimental": "as §1"}, "[4]": {"target": "T2, PHD2 (Homo sapiens, UniProt Q9GZT9)", "T2 construct": "expressed in transfected cells; host or cells: 293 cells (whole cell lysate used as the enzyme source)", "test": "Prolyl hydroxylation assay / in vitro VHL binding assay with GST-HIF-1α (531-826)", "type": "biochemical", "experimental": "[^35S]methionine-labeled VHL protein was synthesized in vitro and GST-HIF-1α (531-826) fusion protein (GstA) was expressed in E. coli. 293 cells were transfected with empty, PHD2, or OS-9 expression vector. After 24 h, cells were washed twice with cold hypotonic extraction buffer containing 20 mM Tris (pH 7.5), 5 mM KCl, 1.5 mM MgCl2, 1 mM dithiothreitol and lysed with hypotonic extraction buffer in a Dounce homogenizer. The cell extract was centrifuged at 10,000×g for 10 min at 4° C., and the supernatant was stored in aliquots at −70° C. GstA (4 μg) was preincubated with whole cell lysate (50 μg) in a total volume of 50 μl with PBS-T at 30° C. for 10 min with or without 1 mM dimethyloxalyl glycine (DMOG). The reaction was terminated by addition of desferrioxamine to 1 mM. One aliquot (0.5 μg of GstA) was used for immunoblot assay using anti-hydroxyproline-564 HIF-1α antibody (Chan et al., 2002). The remainder ([…] of GstA) was used for in vitro VHL binding assay.\nFor in vitro VHL binding assay, preincubated GstA and 5 μl of [^35S]methionine-labeled VHL protein were mixed in a total volume of 300 μl of PBS-T with 1 mM desferrioxamine and incubated at 4° C. for 90 min. 20 ul of glutathione-Sepharose-4B beads (Amersham Biosciences) was added and incubated for 30 min with rotation. Beads were washed three times with PBS-T. Proteins were eluted in Laemmli sample buffer, fractionated by SDS-PAGE, and detected by autoradiography. For PHD binding assay, […] of GST-HIF-1α was preincubated with 50 μg of -whole cell lysate in a total volume of 50 μl with PBS-T at 30° C. for 10 min with or without 1 mM DMOG. The reaction was terminated by addition of desferrioxamine to 1 mM, 20 μl of glutathione-Sepharose-4B beads were added and incubated for 30 min. The beads were washed three times with PBS-T. Bound protein was eluted in Laemmli sample buffer, fractionated by SDS-PAGE, and subjected to immunoblot assay using antibodies against PHD2 (Novus Biologicals Inc.) or GST (Amersham)."}, "[5]": {"target": "T2, PHD2", "test": "Co-immunoprecipitation of HA-OS-9 with PHD2 in 293 cells", "type": "cell-based", "conditions": "anti-HA immunoprecipitates, immunoblot; FIG. 5", "experimental": "as §1"}, "[6]": {"system": "HIF-1α", "test": "HIF-1α protein levels by immunoblot in transfected 293 cells", "type": "cell-based, human", "experimental": "as §2"}, "[7]": {"system": "PHD2", "test": "PHD2 protein levels by immunoblot in transfected 293 cells", "type": "cell-based, human", "conditions": "co-transfection of OS-9 vector; FIG. 7C", "experimental": "(§3) 293 or Hep3B cells were seeded onto 24-well plates at 8×10^4 cells per well of a 24-well plate. The following day, the cells were transfected with plasmid DNAs using Fugene-6 (Roche) for 293 and Lipofectamine Plus (Invitrogen) for Hep3B cells. After 24 h, the cells were exposed to 20% or 1% O2 for 24 h. Cells were lysed, and the luciferase activities were determined by multi-well luminescence reader (PerkinElmer), using the Dual-Luciferase Reporter Assay System (Promega). For p2.1 reporter assay, cells were co-transfected with 15 ng of control reporter pSV-Renilla, 135 ng of HIF-1 reporter p2.1, and expression vector encoding HA-OS-9, HIF-1α, or empty vector. Unless indicated otherwise, 200 ng of HIF-1α, 400 ng of HA-OS-9, 1 ng of PHD2, or 1 ng of HIF-1α triple mutant P402A/P564A/N803A (HIF-1α TM) expression vector was used for co-transfection. […]\nFor in vitro VHL binding assay, preincubated GstA and 5 μl of [^35S]methionine-labeled VHL protein were mixed in a total volume of 300 μl of PBS-T with 1 mM desferrioxamine and incubated at 4° C. for 90 min. […] Beads were washed three times with PBS-T. Proteins were eluted in Laemmli sample buffer, fractionated by SDS-PAGE, and detected by autoradiography. […]"}, "[8]": {"system": "HIF-1α transactivation domains (residues 531-826)", "test": "GAL4-dependent reporter (pGalA) transactivation assay", "type": "cell-based, human", "conditions": "co-transfection of OS-9 expression vector; FIG. 3B", "experimental": "as §3, with “co-transfection. For pGalA reporter assays, Hep3B cells were co-transfected with 12.5 ng of pSV-Renilla, reporter 200 ng of pG5ElbLuc, 100 ng of expression vector encoding the GAL4 DNA-binding domain alone or fused to HIF-1α residues 531-826 (Jiang et al. 1997) and empty vector or vector encoding HA-OS-9. For immunoblot assays, 293 cells were seeded at 3×10^6 cells per 10-cm plate. The following day, the cells were co-transfected with expression vectors using Fugene-6.” for “co-transfection.”"}, "[9]": {"conditions": "293 cells, co-transfection of OS-9, FIG. 4B"}}, "data": [{"molecule": "B1", "values": [{"measurement": "interaction of OS-9 with PHD3", "setting": "[1]", "result": "interaction"}, {"measurement": "Induction of p2.1 reporter activity by HIF-1α", "setting": "[2]; [9]", "result": "significantly inhibited"}, {"measurement": "reporter gene transcription mediated by HIF-1 heterodimers containing HIF-1α-TM", "setting": "[2]; [9]", "result": "neither OS-9 nor PHD2 inhibited"}, {"measurement": "Reporter gene activity induced by hypoxia and/or HIF-1α expression vector", "setting": "[2]; co-transfection of OS-9 expression vector, Hep3B cells, 20% or 1% O2, FIG. 3A", "result": "dramatically inhibited"}, {"measurement": "interaction of HA-OS-9 and HIF-1α in living cells", "setting": "[3]", "result": "coimmunoprecipitation"}, {"measurement": "prolyl hydroxylation of GST-HIF-1α (531-826) (hydroxyproline at residue 564)", "setting": "[4]; immunoblot with anti-Hyp-564 antibody, FIG. 7A middle panel", "result": "increase"}, {"measurement": "binding of VHL to hydroxylated GST-HIF-1α (531-826)", "setting": "[4]; increasing amounts of in vitro-translated OS-9 added after hydroxylation, desferrioxamine present, FIG. 6C", "result": "no effect"}, {"measurement": "VHL binding to GST-HIF-1α (531-826)", "setting": "[4]; lysates from cells co-transfected with PHD2 and OS-9 versus PHD2 alone, FIG. 7A top panel", "result": "further increased"}, {"measurement": "interaction of OS-9 with PHD2", "setting": "[5]", "result": "interaction"}, {"measurement": "HIF-1α protein levels", "setting": "[6]; 293 cells co-transfected with HIF-1α and OS-9 expression vector, FIG. 3C", "result": "reduced"}, {"measurement": "levels of HIF-1α-TM (P402A/P564A/N803A)", "setting": "[6]; 293 cells co-transfected with OS-9 expression vector, FIG. 4A", "result": "no effect"}, {"measurement": "levels of FLAG-tagged HIF-1α", "setting": "[6]; 293 cells, increasing amounts of PHD2 expression vector, presence of OS-9, FIG. 6A", "result": "dramatically reduced"}, {"measurement": "PHD2 protein levels", "setting": "[7]", "result": "no effect"}, {"measurement": "transactivation of GAL4-dependent reporter by pGalA", "setting": "[8]", "result": "no significant inhibitory effect"}]}]}
